Data reported in patent publication US11833164B2, “Methods of treating Fabry disease in patients having a mutation in the GLA gene” (Amicus Therapeutics, Inc., priority 2019, dated 2023).

Tested on: mutant form of α-Gal A expressed in HEK-293 cells
Assay: HEK assay (GLP HEK / Migalastat Amenability Assay): α-Gal A activity in lysates of transiently transfected HEK-293 cells incubated with or without 10 μM migalastat
Type: cell-based, human
Details: for Absolute increase (% WT): 10 μM migalastat versus baseline; for Relative increase: 10 μM migalastat α-Gal A activity relative to baseline; for 10 μM migalastat α-Gal A activity (% WT): 5 days; for 10 μM migalastat α-Gal A activity (% WT) / Baseline α-Gal A activity (% WT): percentage of baseline wild-type α-Gal A activity; for 10 μM migalastat α-Gal A activity (% WT) / Baseline α-Gal A activity (% WT) / Baseline α-Gal A activity / 10 μM migalastat α-Gal A activity: mean ± SEM; for Baseline α-Gal A activity (% WT): absence of migalastat; for Baseline α-Gal A activity / 10 μM migalastat α-Gal A activity: lysates of HEK-293 cells transfected with the mutant form; for Baseline α-Gal A activity: incubated 5 days in the absence of migalastat; for 10 μM migalastat α-Gal A activity: incubated 5 days with 10 μM migalastat
How it was run: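 HEK-293 cells transiently transfected with mutant α-Gal A and incubated with or without 10 μM migalastat; lysate activity given as nmol free 4-MU released per mg protein per hour. Values are mean±SEM.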

| Molecule | Absolute increase (% WT) | Relative increase | 10 μM migalastat α-Gal A activity (% WT) | Baseline α-Gal A activity (% WT) | Baseline α-Gal A activity | 10 μM migalastat α-Gal A activity |
| --- | --- | --- | --- | --- | --- | --- |
| D161V (protein) MQLRNPELHLGCALALRFLALVSWDIPGARALDNGLARTPTMGWLHWERFMCNLDCQEEPDSCISEKLFMEMAELMVSEGWKDAGYEYLCIDDCWMAPQRDSEGRLQADPQRFPHGIRQLANYVHSKGLKLGIYADVGNKTCAGFPGSFGYYDIDAQTFAVWGVDLLKFDGCYCDSLENLADGYKHMSLALNRTGRSIVYSCEWPLYMWPFQKPNYTEIRQYCNHWRNFADIDDSWKSIKSILDWTSFNQERIVDVAGPGGWNDPDMLVIGNFGLSWNQQVTQMALWAIMAAPLFMSNDLRHISPQAKALLQDKDVIAINQDPLGKQGYQLRQGDNFEVWERPLSGLAWAVAMINRQEIGGPRSYTIAVASLGKGVACNPACFITQLLPVKRKLGFYEWTSRLRSHINPTGTVLLQLENTMQMSLKDLL | 16.0 % WT | 1.4 | 59.7 ± 2.7 % WT | 43.7 ± 1.7 % WT | 13728 ± 1344 nmol/mg/h | 19117 ± 2241 nmol/mg/h |
| D161Y (protein) MQLRNPELHLGCALALRFLALVSWDIPGARALDNGLARTPTMGWLHWERFMCNLDCQEEPDSCISEKLFMEMAELMVSEGWKDAGYEYLCIDDCWMAPQRDSEGRLQADPQRFPHGIRQLANYVHSKGLKLGIYADVGNKTCAGFPGSFGYYDIDAQTFAYWGVDLLKFDGCYCDSLENLADGYKHMSLALNRTGRSIVYSCEWPLYMWPFQKPNYTEIRQYCNHWRNFADIDDSWKSIKSILDWTSFNQERIVDVAGPGGWNDPDMLVIGNFGLSWNQQVTQMALWAIMAAPLFMSNDLRHISPQAKALLQDKDVIAINQDPLGKQGYQLRQGDNFEVWERPLSGLAWAVAMINRQEIGGPRSYTIAVASLGKGVACNPACFITQLLPVKRKLGFYEWTSRLRSHINPTGTVLLQLENTMQMSLKDLL | 32.1 % WT | 1.9 | 63.1 ± 4.6 % WT | 31 ± 2.5 % WT | 11060 ± 1571 nmol/mg/h | 21231 ± 2136 nmol/mg/h |
| D165A (protein) MQLRNPELHLGCALALRFLALVSWDIPGARALDNGLARTPTMGWLHWERFMCNLDCQEEPDSCISEKLFMEMAELMVSEGWKDAGYEYLCIDDCWMAPQRDSEGRLQADPQRFPHGIRQLANYVHSKGLKLGIYADVGNKTCAGFPGSFGYYDIDAQTFADWGVALLKFDGCYCDSLENLADGYKHMSLALNRTGRSIVYSCEWPLYMWPFQKPNYTEIRQYCNHWRNFADIDDSWKSIKSILDWTSFNQERIVDVAGPGGWNDPDMLVIGNFGLSWNQQVTQMALWAIMAAPLFMSNDLRHISPQAKALLQDKDVIAINQDPLGKQGYQLRQGDNFEVWERPLSGLAWAVAMINRQEIGGPRSYTIAVASLGKGVACNPACFITQLLPVKRKLGFYEWTSRLRSHINPTGTVLLQLENTMQMSLKDLL | 4.4 % WT | 5.2 | 5.4 ± 0.3 % WT | 1 ± 0.1 % WT | 271 ± 30 nmol/mg/h | 1397 ± 86 nmol/mg/h |
| L166M (protein) MQLRNPELHLGCALALRFLALVSWDIPGARALDNGLARTPTMGWLHWERFMCNLDCQEEPDSCISEKLFMEMAELMVSEGWKDAGYEYLCIDDCWMAPQRDSEGRLQADPQRFPHGIRQLANYVHSKGLKLGIYADVGNKTCAGFPGSFGYYDIDAQTFADWGVDMLKFDGCYCDSLENLADGYKHMSLALNRTGRSIVYSCEWPLYMWPFQKPNYTEIRQYCNHWRNFADIDDSWKSIKSILDWTSFNQERIVDVAGPGGWNDPDMLVIGNFGLSWNQQVTQMALWAIMAAPLFMSNDLRHISPQAKALLQDKDVIAINQDPLGKQGYQLRQGDNFEVWERPLSGLAWAVAMINRQEIGGPRSYTIAVASLGKGVACNPACFITQLLPVKRKLGFYEWTSRLRSHINPTGTVLLQLENTMQMSLKDLL | 48.8 % WT | 1.8 | 104 ± 7.3 % WT | 55.2 ± 4.5 % WT | 15603 ± 1630 nmol/mg/h | 27922 ± 1578 nmol/mg/h |
| V164L (protein) MQLRNPELHLGCALALRFLALVSWDIPGARALDNGLARTPTMGWLHWERFMCNLDCQEEPDSCISEKLFMEMAELMVSEGWKDAGYEYLCIDDCWMAPQRDSEGRLQADPQRFPHGIRQLANYVHSKGLKLGIYADVGNKTCAGFPGSFGYYDIDAQTFADWGLDLLKFDGCYCDSLENLADGYKHMSLALNRTGRSIVYSCEWPLYMWPFQKPNYTEIRQYCNHWRNFADIDDSWKSIKSILDWTSFNQERIVDVAGPGGWNDPDMLVIGNFGLSWNQQVTQMALWAIMAAPLFMSNDLRHISPQAKALLQDKDVIAINQDPLGKQGYQLRQGDNFEVWERPLSGLAWAVAMINRQEIGGPRSYTIAVASLGKGVACNPACFITQLLPVKRKLGFYEWTSRLRSHINPTGTVLLQLENTMQMSLKDLL | 35.0 % WT | 1.7 | 86.2 ± 5.2 % WT | 51.2 ± 3.8 % WT | 22055 ± 1619 nmol/mg/h | 36486 ± 1952 nmol/mg/h |
| V164I (protein) MQLRNPELHLGCALALRFLALVSWDIPGARALDNGLARTPTMGWLHWERFMCNLDCQEEPDSCISEKLFMEMAELMVSEGWKDAGYEYLCIDDCWMAPQRDSEGRLQADPQRFPHGIRQLANYVHSKGLKLGIYADVGNKTCAGFPGSFGYYDIDAQTFADWGIDLLKFDGCYCDSLENLADGYKHMSLALNRTGRSIVYSCEWPLYMWPFQKPNYTEIRQYCNHWRNFADIDDSWKSIKSILDWTSFNQERIVDVAGPGGWNDPDMLVIGNFGLSWNQQVTQMALWAIMAAPLFMSNDLRHISPQAKALLQDKDVIAINQDPLGKQGYQLRQGDNFEVWERPLSGLAWAVAMINRQEIGGPRSYTIAVASLGKGVACNPACFITQLLPVKRKLGFYEWTSRLRSHINPTGTVLLQLENTMQMSLKDLL | 41.9 % WT | 1.9 | 87.1 ± 8.2 % WT | 45.1 ± 3.4 % WT | 12164 ± 1271 nmol/mg/h | 23219 ± 2640 nmol/mg/h |
| W162S (protein) MQLRNPELHLGCALALRFLALVSWDIPGARALDNGLARTPTMGWLHWERFMCNLDCQEEPDSCISEKLFMEMAELMVSEGWKDAGYEYLCIDDCWMAPQRDSEGRLQADPQRFPHGIRQLANYVHSKGLKLGIYADVGNKTCAGFPGSFGYYDIDAQTFADSGVDLLKFDGCYCDSLENLADGYKHMSLALNRTGRSIVYSCEWPLYMWPFQKPNYTEIRQYCNHWRNFADIDDSWKSIKSILDWTSFNQERIVDVAGPGGWNDPDMLVIGNFGLSWNQQVTQMALWAIMAAPLFMSNDLRHISPQAKALLQDKDVIAINQDPLGKQGYQLRQGDNFEVWERPLSGLAWAVAMINRQEIGGPRSYTIAVASLGKGVACNPACFITQLLPVKRKLGFYEWTSRLRSHINPTGTVLLQLENTMQMSLKDLL | 9.2 % WT | 4.6 | 11.8 ± 0.8 % WT | 2.6 ± 0.2 % WT | 653 ± 38 nmol/mg/h | 3019 ± 210 nmol/mg/h |
| V164A (protein) MQLRNPELHLGCALALRFLALVSWDIPGARALDNGLARTPTMGWLHWERFMCNLDCQEEPDSCISEKLFMEMAELMVSEGWKDAGYEYLCIDDCWMAPQRDSEGRLQADPQRFPHGIRQLANYVHSKGLKLGIYADVGNKTCAGFPGSFGYYDIDAQTFADWGADLLKFDGCYCDSLENLADGYKHMSLALNRTGRSIVYSCEWPLYMWPFQKPNYTEIRQYCNHWRNFADIDDSWKSIKSILDWTSFNQERIVDVAGPGGWNDPDMLVIGNFGLSWNQQVTQMALWAIMAAPLFMSNDLRHISPQAKALLQDKDVIAINQDPLGKQGYQLRQGDNFEVWERPLSGLAWAVAMINRQEIGGPRSYTIAVASLGKGVACNPACFITQLLPVKRKLGFYEWTSRLRSHINPTGTVLLQLENTMQMSLKDLL | 7.5 % WT | 1.3 | 32 ± 2.2 % WT | 24.5 ± 1.8 % WT | 6491 ± 691 nmol/mg/h | 8468 ± 832 nmol/mg/h |
| D165E (protein) MQLRNPELHLGCALALRFLALVSWDIPGARALDNGLARTPTMGWLHWERFMCNLDCQEEPDSCISEKLFMEMAELMVSEGWKDAGYEYLCIDDCWMAPQRDSEGRLQADPQRFPHGIRQLANYVHSKGLKLGIYADVGNKTCAGFPGSFGYYDIDAQTFADWGVELLKFDGCYCDSLENLADGYKHMSLALNRTGRSIVYSCEWPLYMWPFQKPNYTEIRQYCNHWRNFADIDDSWKSIKSILDWTSFNQERIVDVAGPGGWNDPDMLVIGNFGLSWNQQVTQMALWAIMAAPLFMSNDLRHISPQAKALLQDKDVIAINQDPLGKQGYQLRQGDNFEVWERPLSGLAWAVAMINRQEIGGPRSYTIAVASLGKGVACNPACFITQLLPVKRKLGFYEWTSRLRSHINPTGTVLLQLENTMQMSLKDLL | 18.4 % WT | 4.4 | 23.8 ± 1.6 % WT | 5.4 ± 0.2 % WT | 1442 ± 43 nmol/mg/h | 6279 ± 288 nmol/mg/h |
